Tests used:
EphA2 [1] = target: T1, EphA2 (Rattus norvegicus, UniProt D3ZBN3); assay: EphA2 activation and ERK status in MatLyLu cells; format: cell-based
T1 construct: greatly elevated in MatLu and MatLyLu variants; endogenous in cells; host or cells: MatLyLu (Dunning R-3327 rat prostate cancer subline)
Protocol: FIGS. 1(A-D) illustrate (A) EphA2 is the primary EphA kinase expressed on human prostate cancer cells. Cell surface proteins were labeled with membrane impermeable biotin (Method). Top panel: Saturating amount of ephrin-A1-Fc (EA1-Fc) was used to precipitate most EphA kinases. Lower panel: EphA2 was first immunodepleted from cell lysates with an EphA2-specific antibody. Saturating amount of ephrin-A1-Fc was then added to the EphA2-depleted cell lysates to precipitate other members of EphA kinases. The precipitates were subject immunoblot with HRP-labeled avidin. (B) Expression of EphA2, but not other EphA kinases and ephrin-As, is elevated in cell lines derived from more malignant prostate cancer. Total cellular proteins were immunoblotted with the indicated antibodies. (C) Immunofluorescence staining of EphA2. Human prostate cancer cells grown on cover slip were stained with anti-EphA2 antibody. Texas-Red labeled secondary was used to visualize the bound primary antibody. […] To determine the ERK activation status, total cell lysates were analyzed by immunoblot using anti-phospho ERK (p-ERK) antibody. […]
Cells cultured in 6 well plates at 70-80% confluence were stimulated with 0.5 μg/ml Fc, 1 μg/ml epnrinA1-Fc or 20 ng/ml HGF/SF or their combinations as indicated. […] For quantitative analysis, band densities were measured using KODAK 1D imagine analysis software (Eastman Kodak Company).

Akt = Akt activities in PC-3 cells; format: cell-based, human
EphA2 [2] = target: T2, EphA2 (Mus musculus, UniProt Q03145); assay: EphA activation and ERK1/2 in primary keratinocytes; format: cell-based
T2 construct: endogenous in cells; host or cells: primary keratinocytes from newborn (P1) mouse epidermis
Protocol: (§1) FIGS. 43(A-C) illustrate EphA2 kinase is required for ephrin-A1-induced inhibition of ERK1/2 MAP kinase and growth suppression in primary keratinocytes. A) EphA kinase activation by ephrin-A1 in EphA2^+/+ and EphA2^+/− but not EphA2^−/− keratinocytes. Keratinocytes were isolated from newborn (P1) mice and cultured on matrigel-coated culture plates. They were stimulated with 1.0 μg/ml of ephrin-A1-Fc for 10 min. The unstimulated cells were used as control. EphA receptors including EphA2 were precipitated from the cell lysates using ephrin-A1-Fc, and were subjected to immunoblot analysis with rabbit polyclonal anti-phospho-EphA/B antibody. Membrane was stripped and blotted again for total EphA2. B) Ephrin-A1 stimulation leads to inactivation of ERK1/2 MAPK in EphA2^+/+ and EphA2^+/− but not EphA2^−/− keratinocytes. Total cell lysates were analyzed by immunoblot with the indicated antibodies. The band densities from p-ERK blot were normalized to the corresponding total ERK1 blot. The ratios of p-ERK between ephrin-A1-treated and untreated were shown in the lower panel. C). Ephrin-A1 stimulation inhibits clonal growth of EphA2^+/+ and EphA2^+/− but not EphA2^−/− keratinocytes. Primary keratinocytes were plated on 6-well plates coated with matrigel at 5,000 cells/well, and allowed to grow for 12 days in the presence of Fc (0.5 μg/ml) or ephrin-A1-Fc (1.0 μg/ml).
(§2) To determine cellular mechanisms underlying the increased susceptibility to skin tumorigenesis, primary keratinocytes were isolated and cultured from epidermis of neonatal (P1) mice. They were stimulated with ephrin-A1 fused to the heavy chain of human IgG1 (ephrin-A1-Fc). EphA kinases including EphA2 were precipitated with excess ephrin-A1-Fc, and blotted with antibody raised against phosphorylated dityrosine peptide that is highly conserved in the juxtamembrane region of all Eph kinases. Phosphorylation of this region has been correlated with Eph receptor activation.
(§3) Primary keratinocytes were isolated from neonatal mouse skin as described previously (Caldelari et al., 2000). Briefly, the entire P1 mouse skin was dissected and incubated with 5 U/ml dispase II (Boehringer Mannheim) overnight at 4° C. Epidermal layer was separated from dermal layer using forceps, minced and digested with 0.25% trypsin/0.05 mMEDTA. After neutralizing trypsin by washing with serum-containing medium, cells were filtered through sterile gauze pads, spun down and resuspended in serum-free keratinocytes culture medium (Gibco) containing pituitary extract, 5 ng/ml EGF, 100 U/ml penicillin, 0.1 mg/ml streptomycin, and 0.25 μg/ml amphotericin, and plated on 6-well plates precoated with 50 μg/ml matrigel. Cell stimulation with ephrin-A1-Fc, immunoprecipitation, and immunoblot were carried as described preciously (Miao et al., 2003; Miao et al., 2005).

EphA2 [3] = assay: as above; format: cell-based, mouse
Protocol: as §1, §2, §3

[4] = tested on: H125, H1975 and SKMES cells; assay: ERK and AKT phosphorylation in non-small cell lung cancer cells; format: cell-based, human; conditions: 2 ìg/ml, 10 and 30 minutes
Excerpt: (§4) FIGS. 47(A-C) illustrate A) Expression of β-gal in EphA2 KO mouse lung. Frozen sections were fixed and stained with X-gal and followed by counterstaining with nuclear Fast-Red. B) Expression of EphA2 in the lung from wild-type mice. Lung frozen sections were stained with goat polyclonal antibodies that recognize the ectodomain of EphA2 followed by detection with donkey anti-goat IgG conjugated with FITC. C) EphA kinase activation by ephrin-A1 in H125, H1975 and SKMES human non-small cell lung cancer cells. Cells were stimulated with 2 ìg/ml of ephrin-A1-Fc for 10 and 30 minutes.
as §4, with “FIG. 47A illustrates the expression” for “FIGS. 47(A-C) illustrate A) Expression”, “knockout” for “KO”, “FIG. 47B illustrates expression” for “B) Expression”, “FIG. 47C illustrates” for “C)”

T2 sequence (Q03145 26-977): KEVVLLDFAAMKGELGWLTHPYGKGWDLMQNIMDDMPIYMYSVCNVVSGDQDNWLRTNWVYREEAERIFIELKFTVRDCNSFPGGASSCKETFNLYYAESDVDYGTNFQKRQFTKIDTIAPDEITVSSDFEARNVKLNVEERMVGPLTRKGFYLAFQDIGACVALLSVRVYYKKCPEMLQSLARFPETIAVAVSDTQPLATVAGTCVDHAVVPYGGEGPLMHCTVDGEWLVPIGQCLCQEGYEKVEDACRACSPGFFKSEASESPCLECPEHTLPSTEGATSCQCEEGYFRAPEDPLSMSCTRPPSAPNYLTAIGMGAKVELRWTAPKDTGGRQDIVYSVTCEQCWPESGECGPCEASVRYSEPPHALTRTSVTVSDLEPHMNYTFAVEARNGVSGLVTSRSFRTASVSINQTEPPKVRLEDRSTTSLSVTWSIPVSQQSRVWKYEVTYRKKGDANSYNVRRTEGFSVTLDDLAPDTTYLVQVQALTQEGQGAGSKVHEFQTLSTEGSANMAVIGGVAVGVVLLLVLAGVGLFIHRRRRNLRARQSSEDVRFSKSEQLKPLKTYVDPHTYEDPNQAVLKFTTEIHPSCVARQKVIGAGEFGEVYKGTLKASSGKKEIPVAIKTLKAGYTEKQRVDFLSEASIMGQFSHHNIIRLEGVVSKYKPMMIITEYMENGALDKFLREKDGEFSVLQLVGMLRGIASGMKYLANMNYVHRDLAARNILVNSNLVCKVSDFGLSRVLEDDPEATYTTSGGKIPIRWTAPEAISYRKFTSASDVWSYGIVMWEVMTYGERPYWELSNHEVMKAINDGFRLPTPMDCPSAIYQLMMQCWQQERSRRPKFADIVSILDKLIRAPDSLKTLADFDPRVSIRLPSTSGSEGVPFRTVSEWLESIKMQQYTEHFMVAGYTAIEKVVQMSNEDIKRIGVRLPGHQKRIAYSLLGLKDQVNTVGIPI
T1 sequence (D3ZBN3 1-977): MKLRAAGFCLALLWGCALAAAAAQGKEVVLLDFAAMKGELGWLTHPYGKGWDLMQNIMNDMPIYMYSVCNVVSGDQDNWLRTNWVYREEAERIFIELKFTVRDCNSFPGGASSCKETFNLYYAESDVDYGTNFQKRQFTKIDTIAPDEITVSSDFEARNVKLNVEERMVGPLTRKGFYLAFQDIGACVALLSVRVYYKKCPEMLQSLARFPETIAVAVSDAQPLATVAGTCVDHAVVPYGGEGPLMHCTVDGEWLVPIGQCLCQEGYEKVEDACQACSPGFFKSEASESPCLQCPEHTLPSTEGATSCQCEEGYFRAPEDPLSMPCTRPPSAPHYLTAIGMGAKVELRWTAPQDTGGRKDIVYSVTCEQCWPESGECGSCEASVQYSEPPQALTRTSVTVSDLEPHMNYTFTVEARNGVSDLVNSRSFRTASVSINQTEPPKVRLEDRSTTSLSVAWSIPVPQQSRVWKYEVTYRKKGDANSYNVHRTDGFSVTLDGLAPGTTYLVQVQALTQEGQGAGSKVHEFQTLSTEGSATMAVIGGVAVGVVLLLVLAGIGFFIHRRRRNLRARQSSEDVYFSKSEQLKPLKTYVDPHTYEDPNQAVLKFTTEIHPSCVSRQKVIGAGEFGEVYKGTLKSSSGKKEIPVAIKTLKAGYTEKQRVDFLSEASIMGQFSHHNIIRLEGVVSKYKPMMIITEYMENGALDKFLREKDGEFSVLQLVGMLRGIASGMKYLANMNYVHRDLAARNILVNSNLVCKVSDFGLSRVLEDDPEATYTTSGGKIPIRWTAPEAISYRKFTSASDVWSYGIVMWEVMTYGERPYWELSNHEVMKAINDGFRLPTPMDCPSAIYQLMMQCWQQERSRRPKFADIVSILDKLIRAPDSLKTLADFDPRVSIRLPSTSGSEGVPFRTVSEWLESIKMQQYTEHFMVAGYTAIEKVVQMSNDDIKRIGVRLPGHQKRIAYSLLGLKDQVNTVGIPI

ERK1/2 activity (EphA2 [1]): reduced
EphA2 activation, time course (EphA2 [1]): readily occurred in two minutes
ERK1/2 activities (EphA2 [2]; heterozygous keratinocytes): intermediate response
EphA2 activation (EphA2 [2]; wild type and heterozygous keratinocytes): readily activated
ERK1/2 activities (EphA2 [2]; wild type keratinocytes): significantly attenuated
B1: ephrin-A1-Fc: ephrin-A1 dimerized by fusion to the heavy chain of human IgG1 (protein)
chain: DRHTVFWNSSNPKFRNEDYTIHVQLNDYVDIICPHYEDHSVADAAMEQYILYLVEHEEYQLCQPQSKDQVRWQCNRPSAKHGPEKLSEKFQRFTPFTLGKEFKEGHSYYYISKPIHQHEDRCLRLKVTVSGKITHSPQAHDNPQEKRLAADDPEVRVLHSIGHS
modifications: left off: a dimerising Fc or GST
notes: ephrin-A1 dimerized by fusion to the heavy chain of human IgG1
Akt activities (Akt): inhibition of Akt activities
p-EphA/B signal (EphA2 [3]; EphA2-null keratinocytes): undetectable
ERK1/2 activities (EphA2 [3]; EphA2 homozygous deletion): completely abolished the inhibitory effects
ERK and AKT phosphorylation [4]: inhibits ERK and AKT phosphorylation

— patent publication US10434074B2, “Peptide and small molecule agonists of EPHA and uses thereof” (CASE WESTERN RESERVE UNIVERSITY, priority 2004, dated 2019)
